Where no end group is shown, it is not given here. [ ]: non-standard residue; d: D form.
Experiments:
[1] = molecular target: recombinant BΔg protein (recombinant human brevican, enzymatically deglycosylated, His-tagged) (human) (UniProt Q96GW7); experiment: BLI (Octet RED), His-tagged BΔg on Ni-NTA sensors, peptide in solution, steady state analysis
[2] = molecular target: recombinant BΔg protein (recombinant human brevican, enzymatically deglycosylated, His-tagged) (human) (UniProt Q96GW7); experiment: BLI (Octet RED), steady state analysis

Chain of recombinant BΔg protein (recombinant human brevican, enzymatically deglycosylated, His-tagged) (human) (Q96GW7 23-911, stated change not applied, form in doubt): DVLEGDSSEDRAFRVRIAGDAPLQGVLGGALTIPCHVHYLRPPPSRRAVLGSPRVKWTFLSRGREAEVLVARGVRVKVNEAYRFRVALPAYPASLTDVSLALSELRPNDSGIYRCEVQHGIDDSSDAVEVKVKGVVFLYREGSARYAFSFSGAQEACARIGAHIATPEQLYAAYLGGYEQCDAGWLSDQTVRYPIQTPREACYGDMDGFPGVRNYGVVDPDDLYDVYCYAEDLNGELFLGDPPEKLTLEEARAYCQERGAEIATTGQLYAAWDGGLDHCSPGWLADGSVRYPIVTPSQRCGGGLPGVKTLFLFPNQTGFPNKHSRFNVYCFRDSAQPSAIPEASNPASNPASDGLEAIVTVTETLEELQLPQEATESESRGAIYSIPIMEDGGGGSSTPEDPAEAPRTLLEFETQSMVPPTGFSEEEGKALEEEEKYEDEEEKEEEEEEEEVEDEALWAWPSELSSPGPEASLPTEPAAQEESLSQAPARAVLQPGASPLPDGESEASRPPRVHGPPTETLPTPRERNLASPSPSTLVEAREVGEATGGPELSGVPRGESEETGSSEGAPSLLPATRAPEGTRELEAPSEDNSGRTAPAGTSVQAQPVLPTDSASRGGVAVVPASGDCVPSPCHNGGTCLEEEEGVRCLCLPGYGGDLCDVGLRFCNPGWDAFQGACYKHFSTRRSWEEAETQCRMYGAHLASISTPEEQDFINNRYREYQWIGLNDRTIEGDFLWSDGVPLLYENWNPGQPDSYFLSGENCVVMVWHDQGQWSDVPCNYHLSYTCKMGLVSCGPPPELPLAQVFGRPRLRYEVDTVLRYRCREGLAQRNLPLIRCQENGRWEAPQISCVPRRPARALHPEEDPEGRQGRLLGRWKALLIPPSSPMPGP

Binder | Kd [1] [nM] | fold lower binding affinity than the unlabeled BTP-7 [2] [fold]
[dT][dI][dR][dK][dL][dV][dR][dH]-NH2 (N-terminus assumed; SMILES CC[C@@H](C)[C@@H](NC(=O)[C@H](N)[C@H](C)O)C(=O)N[C@H](CCCNC(=N)N)C(=O)N[C@H](CCCCN)C(=O)N[C@H](CC(C)C)C(=O)N[C@@H](C(=O)N[C@H](CCCNC(=N)N)C(=O)N[C@H](Cc1c[nH]cn1)C(N)=O)C(C)C) [BTP-8, not labeled with a fluorophore] | 1570 | –
[dA][dD][dR][dR][dQ][dR][dA][dI]-NH2 (N-terminus assumed; SMILES CC[C@@H](C)[C@@H](NC(=O)[C@@H](C)NC(=O)[C@@H](CCCNC(=N)N)NC(=O)[C@@H](CCC(N)=O)NC(=O)[C@@H](CCCNC(=N)N)NC(=O)[C@@H](CCCNC(=N)N)NC(=O)[C@@H](CC(=O)O)NC(=O)[C@@H](C)N)C(N)=O) [BTP-9, not labeled with a fluorophore] | 1500 | –
[dT][dK][dW]G[dH][dV][dN][dK] (not fully specified (C-terminus); also: FITC on side chain of C-terminal Lys: own Lys8 or an added Lys, not given here) [BTP-7 conjugated to a fluorescein dye] | 3800 | > 10
